The record followed here is paper PMC9600000.

The target of this experiment is recombinant human prolidase with N-terminal His-Tag (human) (UniProt P12955). The experiment in a line: SEC; Superdex 200 gel filtration in 150 mM NaCl, 25 mM Tris-HCl pH 7.5, 1 mM TCEP-HCl; mass by a commercial standard (Bio-Rad).

The term stoichiometry N denotes a count of units in the complex or per binding partner. On to “recombinant human prolidase with N-terminal His-Tag (from UniProt P12955 1-493) (enzyme)”, for which the stoichiometry N stood at 2.
